Reference: the DeepSol protein solubility set

test: soluble on expression in E. coli; label from the status in PepcDB or PDB records

Q: Which “soluble on expression in E. coli” value does the source give for “MSLTELLNNQDYRKEALKEIIRELHRGKSVEEVKARFNELIKDVAPAEISLMEQALINEGLPVEEVQRLCDVHAAVFKESLERAPQPETIPGHPVHTFKEENRALEDLMIREIQPLLAELRRANPDVEKDLAIKLAEKLNLLQDVNKHYSRKENLLFPYLEKYQIVGPPKVMWGVDDEIRDLLKEARDLAVNYVPDKKEELITRTEAALAKIKEMIFKEERILFPMALETLTEDEWYRIMLDSASIGYCLIEPREDWRPAQVKLDQKETVASEETRGYIKFATGILTPREISLIFDHLPVDITFVDKDNVVKYFSNTRERIFTRSRAVIGRRVENCHPPASVQVVEKLIADFKSGRKDREAFWLHLGDKYVFIQYFAVRDEKGDFAGTLEVTMDLKPLQAISGEKRIMDEGHHHHHH” here?
A: Its value is “soluble”.

Q: For “SNMEVDVFPDLNAPTVVVMTEATGMAPEEVERLVTFPVETAVNGATDVRRVRSSSTTGFSIVWVEFDWGTDIYRARQIVSEKLAVVGADLPDNVGKPTLGPQSSILGEVMIIGLTADSTSLQDLRTLADWTIRPRLLSIGGVAQVTVLGGDIKEYQILLNPERMKHYGITLAEVRAAVDQMNRNASGGVLYEYGNEYIICGLLSTNDAAALGKTLVKSLDDIPIMLESVAEVRVGNKAPKLGLASERGQSAVLVTITKQPATSTLELTERLDRSLADLQKALPSDVKVSTDIFRQERFIENSISNVRK”, which “soluble on expression in E. coli” value is on record?
A: Its value is “not soluble”.

Q: With “MWLPTPLGPLWLEVSPLGVRRLEPALYPRGPEAEGALALRVREAVQAYFAGERPDFLDLPLDYTGLSPARLRLYERVRLVPYGRTVSYGALGRELGLSPRAVGAALRACPFFLLVPAHRVIHADGRLGGFQGQEGLKLWLLRFEGAL” as the sequence, how does the “soluble on expression in E. coli” value read?
A: The value was “soluble”.

Q: With “LSPSLPSVEALRNVQLQIPLKVYSEDGKLISEFGEMRRTPIRFADIPQDFIHALLSAEDDNFANHYGVDVKSLMRAAAQLLKSGHIQTGGSTITMQVAKNYFLTNERSFSRKINEILLALQIERQLTKDEILELYVNKIYLGNRAYGIEAAAQVYYGKPIKDLSLAEMAMIAGLPKAPSRYNPLVNPTRSTERRNWILERMLKLGFIDQQRYQAAVEEPINASYHVQTPELNAPYIAEMARAEMVGRYGSEAYTEGYKVITTVRSDLQNAASQSVRDGLIDYDQRHGYRGPETRLPGQTRDAWLKHLGQQRSIGGLEPAIVTQVEKSGIMVMTRDGKEEAVTWDSMKWARPFLSNNSMGPMPRQPADVAQAGDQIRVQRQEDGTLRFVQIPAAQSALISLDPKDGAIRSLVGGFSFEQSNYNRAIQAKRQPGSSFKPFIYSAALDNGFTAASLVNDAPIVFVDEYLDKVWRPKNDTNTFLGPIPLREALYKSRNMVSIRVLQGLGIERAISYITKFGFQRDELPRNFSLALGTATVTPMEIAGAWSVFANGGYKVNPYVIERIESRDGQVLYQANPPRVPVEEQVAADAEDAGNPGDPEHPESAEGEGSIEAQQVAAKAQTTFEPTPAERIIDARTAYIMTSMLQDVIKRGTGRRALALKRTDLAGKTGTTNDSKDGWFSGYNSDYVTSVWVGFDQPETLGRREYGGTVALPIWIRYMGFALKDKPMHTMAEPPGIVSLRIDPVTGRSAAPGTPGAYFEMFKNEDTPPSVNELPPGSFPGSPLPDDEGAPIDL” as the sequence, how does the “soluble on expression in E. coli” value read?
A: Its value is “not soluble”.

Q: Which “soluble on expression in E. coli” value does the source give for “MAQLTHINAAGEAHMVDVSAKAETVREARAEAFVTMRSETLAMIIDGRHHKGDVFATARIAGIQAAKRTWDLIPLCHPLMLSKVEVNLQAEPEHNRVRIETLCRLTGKTGVEMEALTAASVAALTIYDMCKAVQKDMVIGPVRLLAKSGGKSGDFKVEADD” here?
A: Its value is “soluble”.

Q: For “MFNIMLVKFVVIFALILASCRVEADNTSVLPEGFVDAAQRSTHTNNWAVLVDASRFWFNYRHVANVLSIYRSVKRLGIPDSQIILMIADDMACNARNPRPGQVYNNANQHINVYGDDVEVDYRGYEVTVENFVRLLTGRTQNGTARSKKLLSDAGSNVLIYLTGHGGDGFLKFQDSEEITSQELADGIQQMWEKKRYNELFFMVDTCQAASLYEKFTSPNVLAVASSLVGEDSLSHHVDPSIGVYMIDRYTYYALEFLEKVQPFSKRTIGEFLQVCPKRVCISTVGVRKDLYPRDPHKVPITDFFGAIRPTRVSTDRINVTLANEELEHHHHHH”, which “soluble on expression in E. coli” value is on record?
A: The value was “not soluble”.

Q: With “MSLEVNVEGKLEAMQAVVGAKAVPFAGTQAEPIQIAMIYPSADTSDFWARNYIAMTKRLEELGIQFETTEFASRQIEHSLQSTYANQVVQDADLYDFVIFGPSELAIQADNIDKMAASEGFSTFVWAFHTPLKDLKNQPDGWFDFSSAAGALTMCDYMLGRLGNDVTMAMNRGIPGITDDQRSGDFKACVEEKGNWTTIYEHYGEYQREGGFEGTSLILQAYPEATVIHNANTAMAMGSVEAQISVGKEKEVFSTGWGGTGLELDAIRRGELDATPMRMGDDVGAATAEAIKAHLEGRSDELPFVFLGRITVAHDQMSAEEIDALEAEAFRFSGVGALEREGHHHHHH” as the sequence, how does the “soluble on expression in E. coli” value read?
A: The value was “not soluble”.

Q: With “GPLGSMDQSVAIQETLVEGEYCVIAVQGVLCKGDSRQSRLLGLVRYRLENDAQEHALFLYTHRRMAITGDDVSLDQIVPLSKDFMLEEVSPDGELYILGSDVTVQLNTAELKLVFQLPFGSHTRTFLQEVARACPGFDPETRDPEFEWLSRHTCAEPDAES” as the sequence, how does the “soluble on expression in E. coli” value read?
A: The value was “soluble”.

Q: With “MSAAGVRSTRQRAAISTLLETLDDFRSAQELHDELRRRGENIGLTTVYRTLQSMASSGLVDTLHTDTGESVYRRCSEHHHHHLVCRSCGSTIEVGDHEVEAWAAEVATKHGFSDVSHTIEIFGTCSDCRS” as the sequence, how does the “soluble on expression in E. coli” value read?
A: Its value is “soluble”.

Q: For “MKNIFGNKNTKRSKNKDGKALASTASKDVADPPKQGGTKGSKKPKPSRGNDEKGREPETSAQSKKAKKGKPKRDSKAATPALSPGSREMLSDHKKQTVEDDPPLPIATSVAGTVTTTGMPALLPAENATQPLKEVVNSGKKSKGAPNSATATPVSHKSTITEGADKWVGEDVAKNWMDSIDLAEVKKEFEKLQSMKVDVEKECKTWKANSKYNQSEDFPALDSNLLKVEKDYVNISRVEIPLGRNIYIGQVPVKDTEETFWKAVFDKRIVSIDVIVGDEPIEFFPKKAEDYKNYGQMWINNRKVEYVSDDVFRFSIEVLPHGCSNSIICNVTVISNWKVDSVPVKQAIAIKEAFGLNSYLLKAPADDNAMINSQHGAGRAGYFLALAVAVHTIDTKVAEPCIVDIVKSIRSQRPRAVDSFCQYCSLYISLLYFIKKKVTKPAEGDKKSTPTNKYLHKKSVEMTKQFTNILLEANQPSVMGPQ”, which “soluble on expression in E. coli” value is on record?
A: The value was “not soluble”.

Q: For “MSLAEGYQSEADLERELIDDLRRQGYEFLPAIKTPEAMLANVRVQLQALNDVQFSDGEWARFVETWLDKPSDGIVEKTRKIHDDYIHDFVFDDGRIQNIHLVDKKTLVRNKVQVIRQFVTTPALCATPPREGNFSGGEQLWDQFPSFGGVPVGRGGYNRYDVTILVNGLPLVQVELKRRGVAIREAFNQVHRYSKESFNSAHSLFKYLQLFVISNGTDTRYFANTTRRDKNSFDFTMHWAKADNTPIRDLKDFAATFFQKHTLLSVLLHYSVFDVSNTLLVMRPYQIAATERILWKIKSSHQAKTWSTPEGGGYIWHTTGSGKTLTSFKAARLGTELDFIDKVFFVVDRKDLDYQTMKEYQRFSPDSVNGSDSTAGLKRNLEKDDNRIIVTTIQKLNNLMKSEPDLPIYHKQVVFIFDECHRSQFGEAQKNLRKKFKRYLQFGFTGTPIFPENALGAETTASVFGRELHSYVITDAIRDEKVLKFKVDYNDVRPRFKAIETERDEKKLSAAENRQALLHPERIREITQYILTHYRQKTHRLQPGAKGFNALFAVSSVEAAKLYYEAFKTQQKDSAKPLKVATIFSYAANEAQDAVGDIADEGFEVSALNSSAKEFLNAAIADYNALFKTNFSVDSQGFQNYYRDLAKRVKGTDDSGKRLPADEQVDLLIVVGMFLTGFDAPTLNTLFVDKNLRYHGLLQAYSRTNRIFDATKTFGNIVTFRDLEQATIDAITLFGDKNTRNVVLEKSYREYMEGYTDALTGQARRGFVEVVQELQARFPDPAALEKEADKKAFVRLFGEYLRAENVLQNFDEFAALKALQSVNTGDPAAVEAFKAQHYLSDEDLAALQAIKLPPERTMQDYRSTYNDIRDWLRREQAGVEKEKSTIDWDDVVFEVDLLKSQEINLDYILELIFERNKETRSKAELVEEVRRVIRASLGHRAKESLVVDFINQTDLEQLAEGHHHHHH”, which “soluble on expression in E. coli” value is on record?
A: The value was “soluble”.

Q: For “MGHIIDISKWNGDINWSIAKQHIDFIIARVQDGSNYVDPLYKGYVQAMKQHGIPFGNYAFCRFVSIADAKKEAQDFWNRGDKSATVWVADVEVKTMNDMRAGTQAFIDELYRLGAKKVGLYVGHHMYTPFGMANVKSDFVWIPRYGGNKPAYPCDIWQYTETGNVPGIGKCDLNSLIGNKSLSWFTESATQESVQAPTQNIIQSGAFSPYETPDVTGALTSLKMTAKFILKPDGLTYFISDPTSDAQLNAMKEYLDRKGWWYEVK”, which “soluble on expression in E. coli” value is on record?
A: The value was “not soluble”.

Q: With “MNNTYNEKTHTLIKQLLKKFSPKVPGFAYMASFDSGVTYKGAVGLASIEENLPITTKSVFNIASVSKQFTAFSILLLEQEGRLSLDDSIVKFVPSIGTYAEPVTLRHLIHHTGGLVDYMELAHAENIEFTDILTVEQSLKHLNGHQIARFPVGTKFEYSNTGYFLLSLVVEKVSGKSLRQFAKERIFDSLNMKDTTIVDCYPTTISIARGYSKNEQGAYMVYESPWEHTGDGAVHATVEDLVKWGENLTTGTVGGKELVKRMSEIGPEISPTRETIIANEDYAFGLRLAEGFNCRYLEHSGSWAGYRSYFMRFPKEYLTVVVLSNYDGFDSKKYANEIAGIILEK” as the sequence, how does the “soluble on expression in E. coli” value read?
A: Its value is “not soluble”.

Q: With “MGESHAPSKPKLDGELCLRPSSSVFLGDQQLYFTQEYLRTNSLNLKYVVYFTACQFSGPIAVAYSPRPASWYIWIRTISGRILKRDMAFNEPVFMEWTRAHCLLVLNKAGRAHIFSSLGEKISEVIFDSQMSDVHECRTFATSRGDSGIAVMDVDGQVSVVNSVSEPVIWSMKPPYSEMPTAWTAFQPHSQLTHILLIFEAVFLMGCQGESLREQSHAASWVDSNTKYVKCVVDDARSRIAMMTESGKIQIVSIDLSTCFCTVEITDHDIAKCINFGWVGNSAVFVQMSPSLIVFVNVSARRKPGDEVQIYEKMTANAKISIEPDGIRLFESTQVEFVEAASREKIAVLNRNPNEDGAHLYKAAQEMSQGTGHNSFAASTVIQDLYKAIDDCISTACDTWQPEEQKLLLKAARFGMAYTNTTPDTTKLMRAIKEIRVLNELRMVRTGIPLTHRQFRAIGETCVINRLIDMGSYSVAIKVAQWLGGETSENVDRVLLEWVRRSISKVSKSNMKMDQPALEALDEKISAKLLQFPHVSIADAARRAIEAKLPELARLFIRRETDDANHVAVLLQLNDVSAALQKASASQRPQLIHQVVRHLMNSESRSSYELAISRIPLAQCLYQDLVRQEGETRGASSRQMLALLEQASDFERQTLFHFDVAETERNPDERLNALRRAKDAAKSMGDKAIEEILNDVSAFAPLQIQRGQADMSVRDTVIEMAHDTAKVAQLKQQARLTDKQVLLWTIEGLAKKGKMEQLFDLAQKRSPIGYAPFVKACVRYKRLDEIKKYFAKVNGYPDLVAAHLAMKNYVEAAKLAYDRRDRDVLHAVHMKSHEDPTQCPRVGQFLRSLDQN” as the sequence, how does the “soluble on expression in E. coli” value read?
A: The value was “not soluble”.

Q: Which “soluble on expression in E. coli” value does the source give for “MGSDKIHHHHHHMFRYDVISNKKNVNPHILALHHHNEKTWISSSSGGVFASLTDYALRQAGVIFGAIYDDNFVVVHRRAETQEDTLKFRGSKYVQSNLTGIYQQVKFYLQEQRFVLFSGTPCQVEGLKGYLQRSYDNLLTVDILCHGVPSPRVFHDYLNFIRQNSDFHFTGIFMKDKTFGWGYQNSRLFFGKNASQFNTVLSRLWNDIFYSHLTTRPSCHACRFTNYLRPGDITIGDFWGIEKHHPQFTDSRGISLIMLNNTKAEIVWNHIKDDFNYLESNIKECIQPNLKYPVPEPVNKATFWQDYASMPFFQIMNKYYRITHQDLLKNRFYMILLTLKKRFT” here?
A: Its value is “not soluble”.

Q: With “SLTMNPLLTAEWGNVSEEKVEVVVDAGLGKALLVPASVESLSMQFNGVEVASLEEFDYSPTKSNARIVIGIDPNELVRALERYFESNQHGELSVEAKLGLFGLLHSTLTFSREFQQDILGQMDFKAESKPIFGGLLYTPSVEGTKVVWLGAENGVWNLKTYATLKNPNSFPIPVSNLEFEVSVNGIKVGVGNISQGVTIPAGGVATVPIDTEIYSEYLPTVLVAHIKNGEESSVEVNFYITVSSGGKSARINLTSERIVIQTDIMASINDALSGVSPRE” as the sequence, how does the “soluble on expression in E. coli” value read?
A: The value was “soluble”.
